From patent publication US20240132548A1 (Janssen / Centocor, published 2024)

Assays:
Assay in all cases: BLI (Octet), biotinylated mAb on streptavidin sensors, culture supernatant
[1] = target: T1, RSV181180 (I152M + K226M + D486N + S215P + P101Q) (respiratory syncytial virus, subgroup B …, UniProt O36634 26-109; P13843 137-540)
T1 chain 1: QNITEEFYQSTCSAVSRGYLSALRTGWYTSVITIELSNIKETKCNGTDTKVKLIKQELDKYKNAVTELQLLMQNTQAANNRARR
T1 chain 2: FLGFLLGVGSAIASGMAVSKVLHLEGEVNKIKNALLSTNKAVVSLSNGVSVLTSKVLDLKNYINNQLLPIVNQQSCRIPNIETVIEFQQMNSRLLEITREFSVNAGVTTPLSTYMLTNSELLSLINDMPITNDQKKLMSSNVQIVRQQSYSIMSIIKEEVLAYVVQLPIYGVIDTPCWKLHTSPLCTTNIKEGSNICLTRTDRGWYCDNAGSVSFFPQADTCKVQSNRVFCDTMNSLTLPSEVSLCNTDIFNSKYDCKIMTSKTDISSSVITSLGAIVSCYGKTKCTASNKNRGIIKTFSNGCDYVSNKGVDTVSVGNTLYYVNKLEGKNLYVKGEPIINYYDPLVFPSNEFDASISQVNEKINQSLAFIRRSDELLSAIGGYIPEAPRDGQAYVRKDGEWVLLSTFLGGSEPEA
Description: (§1) Quantitative Octet (BioLayer Interferometry) was used for measuring protein concentration in the supernatants at day of harvest and after 7 or 30 days storage at 4° C. CR9501 (an antibody specifically recognizing pre-fusion RSV F protein, which comprises the variable regions of the antibodies 58C5 as described in WO2012/006596) and CR9506 (recognizing pre-fusion and post-fusion RSV F protein and comprising a heavy chain variable region comprising SEQ ID NO: 21, and a light chain variable region comprising SEQ ID NO: 22) were biotinylated by standard protocols and immobilized on Streptavidin biosensors (ForteBio, Portsmouth, UK).
(§2) Afterwards, the coated biosensors were blocked in mock cell culture supernatant. A quantitative experiment was performed as follows: temperature 30° C., shaking speed 1000 rpm, time of the assay 300 sec. The concentration of the protein was calculated using a standard curve. The standard curve was prepared for each coated antibody CR9501 and CR9506 using the pre-fusion RSV FA protein (SEQ ID NO: 19; described previously in WO17174568) diluted in mock medium. […] The data analysis was done using the ForteBio Data Analysis 10.0.1.6 software (ForteBio).

[2] = target: T2, RSV180910 (RSV FB signal peptide, C-tag) (respiratory syncytial virus, subgroup B …, UniProt O36634 26-109; P13843 137-540)
T2 construct: Same mature protein as RSV180916, expressed with the RSV B signal peptide; measured in culture supernatant, furin co-transfected
T2 chain 1: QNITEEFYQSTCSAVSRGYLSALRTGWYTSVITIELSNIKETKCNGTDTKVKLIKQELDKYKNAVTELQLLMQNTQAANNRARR
T2 chain 2: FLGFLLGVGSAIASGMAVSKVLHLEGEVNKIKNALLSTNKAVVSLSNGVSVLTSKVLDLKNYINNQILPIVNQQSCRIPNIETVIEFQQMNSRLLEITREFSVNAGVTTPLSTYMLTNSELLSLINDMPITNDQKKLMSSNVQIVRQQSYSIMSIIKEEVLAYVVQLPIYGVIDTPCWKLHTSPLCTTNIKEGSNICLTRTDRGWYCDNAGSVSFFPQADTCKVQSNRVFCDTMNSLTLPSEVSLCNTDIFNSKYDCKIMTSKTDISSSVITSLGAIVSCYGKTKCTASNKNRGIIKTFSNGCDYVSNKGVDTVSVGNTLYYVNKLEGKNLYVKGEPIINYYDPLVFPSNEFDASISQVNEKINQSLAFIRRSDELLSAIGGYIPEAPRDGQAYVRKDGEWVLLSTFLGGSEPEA
Description: as §1, §2

[3] = target: T3, RSV190417 (tag-free; I152M + K226M + D486N + S215P + L203I + P101Q + D489Y) (respiratory syncytial virus, subgroup B …, UniProt O36634 26-109; P13843 137-540)
T3 construct: Measured in culture supernatant, furin co-transfected
T3 chain 1: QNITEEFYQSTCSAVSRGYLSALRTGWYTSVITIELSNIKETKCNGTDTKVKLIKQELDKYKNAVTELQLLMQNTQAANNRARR
T3 chain 2: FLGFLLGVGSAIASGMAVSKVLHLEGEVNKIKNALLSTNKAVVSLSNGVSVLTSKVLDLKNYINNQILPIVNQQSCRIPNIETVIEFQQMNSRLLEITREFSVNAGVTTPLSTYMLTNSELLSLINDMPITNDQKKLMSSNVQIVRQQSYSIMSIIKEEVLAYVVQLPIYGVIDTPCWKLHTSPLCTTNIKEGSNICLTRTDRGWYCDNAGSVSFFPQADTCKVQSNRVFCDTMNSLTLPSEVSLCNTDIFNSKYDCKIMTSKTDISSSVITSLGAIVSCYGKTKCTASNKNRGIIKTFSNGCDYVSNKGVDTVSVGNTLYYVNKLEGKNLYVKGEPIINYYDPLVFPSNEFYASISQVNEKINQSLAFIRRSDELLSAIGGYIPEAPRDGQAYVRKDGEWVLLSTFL
Description: as §1, §2

[4] = target: T4, RSV180907 (tag-free, RSV FB signal peptide) (respiratory syncytial virus, subgroup B …, UniProt O36634 26-109; P13843 137-540)
T4 construct: Same mature protein as RSV180913, expressed with the RSV B signal peptide; measured in culture supernatant, furin co-transfected
T4 chain 1: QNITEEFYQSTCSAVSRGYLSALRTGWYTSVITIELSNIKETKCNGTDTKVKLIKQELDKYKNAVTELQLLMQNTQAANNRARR
T4 chain 2: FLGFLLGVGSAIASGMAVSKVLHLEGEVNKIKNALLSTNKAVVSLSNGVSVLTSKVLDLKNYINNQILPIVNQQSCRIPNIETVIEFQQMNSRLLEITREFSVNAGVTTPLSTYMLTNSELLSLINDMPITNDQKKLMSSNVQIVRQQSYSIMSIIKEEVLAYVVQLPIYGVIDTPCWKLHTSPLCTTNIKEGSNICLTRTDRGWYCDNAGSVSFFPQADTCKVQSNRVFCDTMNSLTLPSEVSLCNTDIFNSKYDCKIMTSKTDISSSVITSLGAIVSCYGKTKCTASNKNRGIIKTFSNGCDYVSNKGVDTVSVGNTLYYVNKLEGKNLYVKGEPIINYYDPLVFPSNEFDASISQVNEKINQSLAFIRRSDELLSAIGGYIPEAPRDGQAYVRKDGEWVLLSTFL
Description: as §1, §2

Measured: binding result

B1: CR9506 (antibody, human IgG1, kappa, V domains shown)
VH: EVQLVQSGAEVKKPGSSVKVSCKASGGTFSRSLITWVRQAPGQGLEWMGEISLVFGSAKNAQKFQGRVTITADESTSTAHMEMISLKHEDTAVYYCAAHQYGSGTHNNFWDESELRFDLWGQGTLVTVSS
VL: DIVMTQSPSSLSASVGDRVTIACRASQSIGTYLNWYQQKPGKAPKLLIYAASSLQSGVPSRFSGSGSGTHFTLAISSLQAEDFATYSCQQSYTIPYTFGQGTKLEIKR
notes: Biotinylated for Octet; coated and also used HRP-labelled as detection antibody in the ELISA
binds: [1] | [2] | [3] | [4]
